Measurements reported in patent US20030039970, “Method for prognosing cancer and the proteins involved” (published 2003).
Where a chain is given by its changes, count along the chain named.

B1: T-wt (T-box ACTTTA) (dsDNA)
DNA 1: GTCTGTCTGGATCCGAGGTGAGTACTGACTTTACACACGTCTTCCGAAGCTTACGTCGCG
DNA 2: CGCGACGTAAGCTTCGGAAGACGTGTGTAAAGTCAGTACTCACCTCGGATCCAGACAGAC
B2: T-mut (dsDNA)
DNA 1: B1 DNA 1 with T30G
DNA 2: B1 DNA 2 with A31C

Legend:
TRAITS (TID-1/U19) [1] = biological target: T1, TRAITS (TID-1/U19) (Rattus norvegicus, UniProt Q811X5 SEQ:1-262); experiment: EMSA; complex competed by 5x, 25x, 125x cold T-wt; poly[dI-dC] present; conditions: tags: GST fusion (pGEX-2T, E. coli); label: 32P 5' end
Excerpt: (§1) The binding of GST-TRAITS fusion protein to labeled T-box containing DNA forms a DNA-protein complex (C), which can be competed in the presence of indicated fold (5×, 25×, or 125×) molar excess of cold T-wt but not by cold T-mut (ACTgTA). A non-specific complex (*) in the presence of GST-TRAITS was also formed in the presence of GST only. Labeled free DNA (F) was also indicated. […] NIH3T3 cells were transiently transfected with empty vector (PM) or vectors expressing the full-length rat TRAITS (residues 1-262 of SEQ ID NO: 14), its N-terminal (residues 1-113 of SEQ ID NO: 14), or its C-terminal (residues 114-262 of SEQ ID NO: 14) plus pG5CAT reporter and pSV-β-gal for normalization. Assays were performed after 24 hours of transfection. The fold activation of CAT reporter is shown with S.E.M. Assays were performed in triplicate in two separate experiments.
(§2) T-wt: (5′-[…] GAAGCTTACGTCGCG-3′ SEQ ID NO: 33) and T-mut: (5′-[…] CGAAGCTTACGTCGCG-3′ SEQ ID NO: 34) were synthesized and amplified by PCR. T4 polynucleotide kinase (Promega) was used to label T-wt & T-mut by [γ-³²P] ATP (NEN). Recombinant GST-TRAITS fusion protein was incubated with […] poly [dI-dC] and EMSA was performed according to the protocol provided by Gel Shift Assay System (Promega).

TRAITS (TID-1/U19) [2] = biological target: T1, TRAITS (TID-1/U19); experiment: competition; cold T-mut up to 125x molar excess does not compete for labeled T-wt complex; legend prints ACTgTA but sequence has ACGTTA; conditions: tags: GST fusion (pGEX-2T, E. coli)
Excerpt: as §1, §2

T1 sequence (Q811X5 whole entry, the tested form may be a part): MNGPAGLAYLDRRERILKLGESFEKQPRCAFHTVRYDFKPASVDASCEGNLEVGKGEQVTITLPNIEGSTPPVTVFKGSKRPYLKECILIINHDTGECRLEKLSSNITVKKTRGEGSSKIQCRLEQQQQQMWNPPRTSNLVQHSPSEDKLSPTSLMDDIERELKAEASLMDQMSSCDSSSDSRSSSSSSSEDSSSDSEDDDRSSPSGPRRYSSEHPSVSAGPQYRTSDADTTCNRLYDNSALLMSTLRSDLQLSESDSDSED

Row | Binder | binding result (TRAITS (TID-1/U19) [1]) | binding result (TRAITS (TID-1/U19) [2])
1 | B1 | binds | –
2 | B2 | – | no binding
